In publication PMC2851401 (Journal of molecular biology, 2010):

B1: chimeric rabbit/human Fab SJS-R1 as the selected phage display clone in pC3C (Fab, V domains shown)
VH: QEQLVESGGRLVTPGTALTLTCKVSGFSLSGFWLNWVRQAPGKGLEWVGAIYRGSGSEWYASWAKGRFTISDTSTTVTLKLTSPTTEDTATYFCAADTTDNGYFTIWGPGTLVTVSS
VL: ELVMTQTPSSVSEPVGGTVTIKCQASQSISSWLSWYQQKPGQPPKLLIYDASNLASGVPSRFMGSGSGTEYTLTISGVQREDAATYYCLGGYPAASYRTAFGGGTELEII

Tests used:
[1] = molecular target: Rev (Human immunodeficiency virus 1) (UniProt P04325); details: cited from earlier work
[2] = molecular target: biotinylated HIV-1 Rev with C-terminal Avitag (HIV-1, UniProt P04616); assay: ELISA
biotinylated HIV-1 Rev with C-terminal Avitag, sequence (P04616 whole entry): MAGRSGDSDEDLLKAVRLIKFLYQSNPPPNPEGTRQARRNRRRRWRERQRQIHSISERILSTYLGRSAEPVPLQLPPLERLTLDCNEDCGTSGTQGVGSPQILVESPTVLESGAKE

| Molecule | Kd [1] [nM] | binding result [2] |
| --- | --- | --- |
| Rev (from UniProt P04325) | 1000 |  |
| B1 |  | binds |
